Assay results from the DeepSol protein solubility set.

test: soluble on expression in E. coli; label from the status in PepcDB or PDB records

Row | Sequence | soluble on expression in E. coli
1 | MAMVIPARNQMASQFLELPKRTSSLMAPTMVLQGHGGEIYTSQFSSDGSFLASAGYDQQIFLWNVFGECENFAVLKGHKGAIMEVKFNADSSHLVSAGTDKTVRVWDMETGSCIRNFKSHTDIVNSVDVNRRGPQMICSASDDGTVMVHDMRSKEAAKKFICKYQQTAVTFNDAADNVICGGIDNQIKVWDMLRNDVRYVLSGHRDTITSLSVSHNGNFLLSNSMDCSLMSWDIRPFVPAQRLVARYQGASHNFEKNLLKCGWSPRDNYITAGSADRFVYVWNAKSRACVYKLPGHLGSVNCTALHPTQQILLSAGSDKTIFLGELDLEDY | not soluble
2 | MASTSAATPLKNKRKFENGKKKPKTLKDEFGEKLDIKPVIVPPKPADEYDYDSSDEEDLRNTIGNIPIKWYDDEDHIGYDKFGEKIAKPAKKGEIETFLEKMEDPDYWRKVFDKQTGTDVKLTDEQIEKIHNIATGKYPTIGYNPYEPFLDIFSSQKEIHPIDNRPEPKSRFIPSKDEMRMVSRMVHAIKMGWAKGPRAKKEEHKSYDLWASEDALDNVTKSQLSRMRVHMPAPKVALPTHAESYNPPEEYIFDDEERKKWEEAEKEDRVLNFMPSKYDALRKVPQYDKFITERFERCLDLYLAPRQRKMRIHADPTDLLPDLPNPNDLRPFPTTLAFYMRGHTGQVRAITVEPERGELLASGGEDGTVRIWMIATGRCIKTFQMDGEVTSVSFSPVADRTLLAVAYEGKYVAILNTGCGDRLHVQQTEALLAETPTDAQEDGAVVTWRKSKEKLMLKMPNEVRQVTWHSKGDYFASVAIDDIAKSVYVHQLSKAKSQCPFQKRKGHVQAVTFHPTQARLFVATKIHVREYDLARCVLVKKLITGCKHISTMATDANGENLFLGGLDRRFCWMDLQMGNKPWKKLKHHTAAVRSVAYHKKYPLLATVSDDGTAMVYYARIYTDFVKDNELYPVKRLRAHEKTPNDLCMLHTTWHPTQPWLITAGADGTIALFTY | not soluble
3 | MGSDKIHHHHHHMNTRNDNSKILEIYKMKLFGELVKAVWNDDIEDIENLPNKILNEDLKDNLNNYFSGKFDKDTMVNLIRVTMGLDVTEDTDKNLKESLHEAVNLDEVKRPIISVISDACKYCDENNKEDESCKIRSKHINCNEEDVCSACGDCVSRCKLGAISDKIEFIPMIKLLKDIKSPVYAIVAPAFVGQFGKDVSPGKLRTALKKIGFEDMIEVALAADMLTAKEAYDYYEHMKKDEEGCFITSCCCPIWVSLIQNSFPQILENVSPSVSPMIACGRAVKILNPDAKVVFIGPCMAKKKEAMLEDIKDAVDFVLTFKELQEIFDALELNPAIMDESNRVEASLSGRVYARTGGVSKAVKLSVRRIDKNIKFEEKAFEGTKECMDGLKKVLNKEIEATFIEGMGCVGGCVGGPKRILSVEEGTKNVDEYSESTNMETPFDNLNVLQFLTSLGIKRVESLGEKEEEKVKKIFSRDIKSNKKENKYKK | not soluble
4 | VGKEKREIELFVSDPELEAEVKAASEGKMKAAIKTEEKKAREAAIEEVKEEILESYKAKELENEAEILGEVAHILEMIEKDEMRRLISQDKIRPDGRKVNEIRP | not soluble
5 | MSWTGRLQCTAAFRNGRTVILDSYNEGALKLMRPVYLNSTYPTLYLVHVGGGYVDGDSYDMEISLEPSARLMVTTQSAAKIYKTPSTPVRQYTRFSLGEQSVLEYFPDPTIAYEHARFVQETTVYITSSSTVVYGEIITPGWSESGELFRYDWIRSKLKVYQDEALVLFDHLYLDSRQHLTSMLQLGGYTHVGSLVALSPFITKEVLERFNQFMEEMPQEVRCGFSAAAVPGFSVRILAYETSAIEAIFQRVQQFIRQQCGEKTPVCWRKY | not soluble
6 | TLTSTLASMMDALETALQPLKKYGFPVESVVLAFSLTLRLLPLMLNTVNEVLDARKARGVAFSLTALGTPVMIRSINRARSIADALMARGAGD | not soluble
7 | MALVRPFPIVQVVGFQNSGKTTFIERILEKASEQGVHLGCLKHHGHGGEPQTLTEGKDTDRYKAAGADVTAVEGAGVLQLTARRNWDLARLIELYQFLETDCLLIEGFKKAPYPKVVILSEKEDLEALQAVNIIAIIYRKKEHMTEHQGLPVFHADDPVAVDFVLSQLKGESA | soluble
8 | MDFLKQPCAPLDFDLSREQIEGMLRSARFIKGSFSTRVVGHLPIDNSFRQVSVAIENETSSSIEIMTLERGDTFCGIPLKQRKIPFQNSLKSADIDFTYDDSGIDLTNAPVSFFIEGGRVASICWHHKHRN | not soluble
9 | MGSDKIHHHHHHMINAPKTCTCYNGCVGGPSRPAGHPRRRTDKPRWRWTFDSGRRTPSVRIRQLVRGTVPWESLEAVARELGARYDQDTVRVVFLDADNWLSTPCVVNDRWFVKVISEQNALVHAVFTGARNLGMFSSGTEGFFERFDGPVAMAEHERDATRDLRALGVNAPRPIEAFEVDGFGVLVLDYLPAFTPLDEVPAADVAAHAPAVFEALSTMHANGVAHGDLRAENVLVSDGDLYFIDATNVDTDAIADARAYDLACALAALEPLIDAQTVVRIARESYTVDEAAADVSTTMDALLRAQDFLGFVQLRPDHDFDTAALTGHIGMAATNAQRGL | not soluble
10 | MHIKIDDLTGRQVVSLVNEHLHSMTLMSPPESIHALGLEKLRGPEITFWSAWEGDELAGCGALKELDTRHGEIKSMRTSASHLRKGVAKQVLQHIIEEAEKRGYERLSLETGSMASFEPARKLYESFGFQYCEPFADYGEDPNSVFMTKKLLEHHHHHH | soluble
11 | MAHHHHHHMEAGTSPIRAGSSDGGGSVRGDIFRRHSVNSGENNMNDNKDNDSNTEWSEQFRLIARRMSRALLRNPHPDVQTDKRVMYGVLYELFEQWSERQQRAHSVSLTVEQVGSILRYGEQTLRQASLTAPALNKAQVVVDLIAASPLITIGALTQELRGLQPPVVLTPMAEVLELARLLDVSQGVRTPVGAVNLVHFIALSSTLCPAPDMGALLLLVASNVKRCHLLCAAIYYEWAMIDAQNREGLLLLSRELEEKHQQMCEGFTVDILTPLLTGSFEPFGARPTDPVAVDYLGMGSLPCTGTAEEQQRCHQLAPPSGNELEPTCEDSDTGGHGEGDCESSVEDEYDSDCRDTVDTEFWLRLSS | not soluble
12 | MKKGHHHHHHGSQYNPQVADLKAFSKHIYNAYLKNFNMTKKKARSILTGKASHTAPFVIHDIETLWQAEKGLVWKQLVNGLPPYKEISVHVFYRCQCTTVETVRELTEFAKSIPSFSSLFLNDQVTLLKYGVHEAIFAMLASIVNKDGLLVANGSGFVTREFLRSLRKPFSDIIEPKFEFAVKFNALELDDSDLALFIAAIILCGDRPGLMNVPRVEAIQDTILRALEFHLQANHPDAQYLFPKLLQKMADLRQLVTEHAQMMQRIKKTETETSLHPLLQEIYKDMY | soluble
13 | LPVTDNHIHVDDKHGYGAEKVAKTFYNAGGKVMIVLNKPTFDGNLTASMDILVRDVEIINKNTPVKAFGLVGVHPAELTYLMKFMSLEEAKQRIVDALNYAKKLVEEYDFIVGIGEVGRPHYPVSEDVWKASNEILKYCMELAKDIGCAIQIHAESSTEEQFKEFSEMAKEVGLNPEKVVKHHCGNMVLEGERYGIFPSILASRVNEDVVKKSLRFVMETDYIDDLKRPGVALGIKTVPRVTRRLIEKGVLDEEGVYKIHKENIERIYDM | not soluble
14 | GAMGSMSVSEANGTETIKPPMNGNPYGPNPSDFLSRVNNFSIIESTLREGEQFANAFFDTEKKIQIAKALDNFGVDYIELTSPVASEQSRQDCEAICKLGLKCKILTHIRCHMDDARVAVETGVDGVDVVIGTSQYLRKYSHGKDMTYIIDSATEVINFVKSKGIEVRFSSEDSFRSDLVDLLSLYKAVDKIGVNRVGIADTVGCATPRQVYDLIRTLRGVVSCDIECHFHNDTGMAIANAYCALEAGATHIDTSILGIGERNGITPLGALLARMYVTDREYITHKYKLNQLRELENLVADAVEVQIPFNNYITGMCAFTHKAGIHAKAILANPSTYEILKPEDFGMSRYVHVGSRLTGWNAIKSRAEQLNLHLTDAQAKELTVRIKKLADVRTLAMDDVDRVLREYHADLSDADRITKEASA | soluble
15 | MDLAAHIDHTLLKPTATLEEVAKAAEEALEYGFYGLCIPPSYVAWVRARYPHAPFRLVTVVGFPLGYQEKEVKALEAALACARGADEVDMVLHLGRAKAGDLDYLEAEVRAVREAVPQAVLKVILETGYFSPEEIARLAEAAIRGGADFLKTSTGFGPRGASLEDVALLVRVAQGRAQVKAAGGIRDRETALRMLKAGASRLGTSSGVALVAGEGGTLGY | soluble
16 | MGHHHHHHSHKRVVLKLSGEALAGEKGFGINPVIIKSVAEQVAEVAKMDCEIAVIVGGGNIWRGKTGSDLGMDRGTADYMGMLATVMNALALQDSLEQLDCDTRVLTSIEMKQVAEPYIRRRAIRHLEKKRVVIFAAGIGNPYFSTDTTAALRAAEVEADVILMGKNNVDGVYSADPKVNKDAVKYEHLTHIQMLQEGLQVMDSTASSFCMDNNIPLTVFS | not soluble
17 | ASNVHRVQQVIHAAIATNRKLAVAGRSMVKVVSIAERLGYLEAPDDLFIDIEEVSKYDDERVAIITTGSQGEPMSALSRMAKGAHRQITITENDTVIIAATPIPGNERSVSTIVDLLHRIGADVIFGHGKVHASGHGSAEELKLMLNLMRPKFFVPIHGEFRMQHAHKELAKSVGIREEAIFLVDKGEVVEFRNGQGRKAGKVPSGNVLIDGLGVGDVGNIVLRDRRLLSKDGILVVVVTLNKQSGTILSGPNIISRGFVYVRESEKLIEEANELVTETLKKCVTENVNEWSSLKSNVREVLSRFLFEKTKRRPMILPIIME | soluble
18 | MIKVAIIGAENVGKSTLMNALLGGKFSEVSETPGTTKGIIKRAFGKIKLPKTMKNPFGGADELVLIDTAGLFDPEKEIRGKVLSEEKFKELIKEIVNADVIIHMIDATKGLHRGMEKLHYMLKFRYEKPIIVVINKIDLVSREELERLRELVKKRLEQEPILLSLVTYEGFNELLKALTYYAQYVE | soluble
19 | MGGASSPRIPSRRSAPYFTSLAFFGSSYIKVKNNRNKMLNPTDAASVALSFSVPFQMSGENPLSKLVEHCNKFVPGADIKMKAEPAKPESLLLPTDMNAYSPYLATPNWWVDQTGWPQLYPTVTTASSVDVYQNYLASSQLGGLLSSSVSAVASQLPAGINAQSALNITSQQRTIAKSFQHTKPMASSSSIPSVLTASNSSANSLVSSGSESVSARGTSGSGGTGKYPSSRTANKCECPNCHEIEKFGPNAIAARKRGVHNCHIAGCGKVYNKSSHLKAHLRWHSGERQMKKRSGDSS | not soluble
20 | AEEYGYIVTDQKPLSLAAGVKLLEILAEHVHMSSGSFINISVVGPALTFRIRHNEQNLSLADVTQQAGLVKSELEAQTGLQILQTGVGQRE | soluble
21 | MTGLDKIISQILEDAGKEAQEISEKAKSEAEAVLAEAKAGCKKIAAENDEKLAGEATSYMERIKSSAELKKRQAVLLAKQQVITEMLEQAYEALLKKEGEEYFALIGKMLDKYVLPKTGEIYFSEKDLDRMPQGFEAVIEKAAVSKGGSLTLVKEPKNIDGGFILVYGGIEENCSFRALLAARRDELSDKVHAMLFS | not soluble
22 | ATQRFLIEKFSQEQIGENIVCRVICTTGQIPIRDLSADISQVLKEKRSIKKVWTFGRNPACDYHLGNISRLSNKHFQILLGEDGNLLLNDISTNGTWLNGQKVEKNSNQLLSQGDEITVGVGVESDILSLVIFINDKFKQCLEQNKVDRIR | soluble
23 | MGRQAMKKFVDVSHTIENGLITYKGLPAPIICDYLSREESRSFYEPGTEFQIGKIEMVTNTGTYIDVPFHRYADGKDLSEATVEQMAGLEGVVIPVDKHVKKIDVDVFKSADLHGKAVLIYTGWDEHWNTERYFEDHPYVTEEAANYLKEQKVALVGIDSHNIDDTSGKRRPVHTILLRADILIVEHLCKLGQLVDQSFLFYAVAPKFKGAGTFPVRAFAEIVLEHHHHHH | soluble
